Biological target: His6-tagged 13C,15N-H1 (human, UniProt P07305 1-194)
Experiment: NMR titration

Sequence of His6-tagged 13C,15N-H1 (P07305 whole entry): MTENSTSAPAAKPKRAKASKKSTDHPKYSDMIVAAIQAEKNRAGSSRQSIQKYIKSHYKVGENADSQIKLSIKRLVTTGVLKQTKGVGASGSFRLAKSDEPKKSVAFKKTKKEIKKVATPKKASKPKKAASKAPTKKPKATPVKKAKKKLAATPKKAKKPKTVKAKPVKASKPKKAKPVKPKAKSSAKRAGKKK

B1: prothymosin α (unlabeled, wildtype) (natural protein, human, UniProt P06454 1-111, looked up)
chain: MSDAAVDTSSEITTKDLKEKKEVVEEAENGRDAPANGNAENEENGEQEADNEVDEEEEEGGEEEEEEEEGDGEEEDGDEDEEAESATGKRAAEDDEDDDVDTKKQKTDEDD
With B1 as the binder, how does the “stoichiometry N” value read?
Its value is 1.
